Fold increase over wild-type KD and Kd data for 29 molecules are collected here from patent US20220177549A1.

Test [1] concerns the target porcine FcRn complex (porcine) (UniProt Q07717). The experiment in a line: SPR (Biacore 8K+), pH 5.9, 25 C; FcRn captured by anti-His, IgG as analyte; 1:1 kinetic model.
The target is the same in test [2]. The experiment in a line: SPR (Biacore 8K+), pH 5.9, 25 C; FcRn captured by anti-His, IgG as analyte; steady state affinity. A general note: Surface plasmon resonance follows binding to a sensor surface in real time, without labels.
The target of test [3] is equine FcRn complex (equine) (UniProt F6XZ61). The test is described as follows: SPR (Biacore 8K+), pH 5.9, 25 C; FcRn captured by anti-His, IgG as analyte; 1:1 kinetic model.
Sequence of equine FcRn complex (equine) (chain, as listed by the source, chain 1 of 2): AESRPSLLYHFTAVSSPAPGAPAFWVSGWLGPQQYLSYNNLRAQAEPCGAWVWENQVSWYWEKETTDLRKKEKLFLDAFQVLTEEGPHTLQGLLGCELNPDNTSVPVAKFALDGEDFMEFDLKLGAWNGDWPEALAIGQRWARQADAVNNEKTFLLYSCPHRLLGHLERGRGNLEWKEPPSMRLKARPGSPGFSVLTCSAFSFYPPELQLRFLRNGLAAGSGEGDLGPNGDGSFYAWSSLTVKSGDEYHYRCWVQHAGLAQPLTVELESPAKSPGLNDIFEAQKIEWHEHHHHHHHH
Sequence of equine FcRn complex (equine) (P30441 other isoform, or with tags, fused parts or gaps, chain 2 of 2): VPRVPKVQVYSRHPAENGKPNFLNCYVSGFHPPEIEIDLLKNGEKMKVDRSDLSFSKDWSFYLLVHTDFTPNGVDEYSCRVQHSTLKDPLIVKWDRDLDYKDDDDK
The target in test [4] is ovine FcRn complex (ovine) (UniProt Q6QAT4). The experiment in a line: SPR (Biacore 8K+), pH 5.9, 25 C; FcRn captured by anti-His, IgG as analyte; steady state affinity.
Sequence of ovine FcRn complex (ovine) (main, as listed by the source, chain 1 of 2): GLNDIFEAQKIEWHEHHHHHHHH
Sequence of ovine FcRn complex (ovine) (Q6QAT4 other isoform, or with tags, fused parts or gaps, chain 2 of 2): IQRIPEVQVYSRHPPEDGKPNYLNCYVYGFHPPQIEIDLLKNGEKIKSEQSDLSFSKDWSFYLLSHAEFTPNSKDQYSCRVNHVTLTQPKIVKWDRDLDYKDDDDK
Test [5] shares this target. The test is described as follows: SPR (Biacore 8K+), pH 5.9, 25 C; FcRn captured by anti-His, IgG as analyte; 1:1 kinetic model.
In test [6] the target is bovine FcRn complex (bovine) (UniProt F6R592). The test is described as above.
Sequence of bovine FcRn complex (bovine) (chain, as listed by the source, chain 1 of 2): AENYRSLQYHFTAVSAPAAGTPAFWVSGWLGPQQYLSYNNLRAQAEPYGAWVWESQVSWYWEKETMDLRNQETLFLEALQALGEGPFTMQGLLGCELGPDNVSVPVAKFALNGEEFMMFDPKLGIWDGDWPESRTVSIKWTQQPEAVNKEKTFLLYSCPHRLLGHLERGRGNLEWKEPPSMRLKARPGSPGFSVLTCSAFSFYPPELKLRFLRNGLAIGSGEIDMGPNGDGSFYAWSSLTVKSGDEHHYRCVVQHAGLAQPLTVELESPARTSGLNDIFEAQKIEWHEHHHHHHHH
Sequence of bovine FcRn complex (bovine) (P01888 other isoform, or with tags, fused parts or gaps, chain 2 of 2): as the sequence (Q6QAT4 other isoform, or with tags, fused parts or gaps, chain 2 of 2) above, with I4P, E6K, V7I, N82K, T87E, K90R counted along it

As usually defined, the Kd is the free concentration of one partner at which half of the binding sites on the other are occupied at equilibrium, for simple one-to-one binding. Low readings indicate a tighter complex, high ones a looser complex.

Changes are numbered by the printed parent chain. Names and notes keep the numbering of the source.

Sequence of porcine FcRn complex (porcine) (Q07717 other isoform, or with tags, fused parts or gaps, chain 2 of 2): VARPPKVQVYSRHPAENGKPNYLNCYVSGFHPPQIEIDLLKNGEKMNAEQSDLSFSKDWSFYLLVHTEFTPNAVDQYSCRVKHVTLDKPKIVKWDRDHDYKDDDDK

B1: Porcine T286E (antibody, part only; not given: variable domains and light chain, IgG1a, not shown: another chain or arm of the molecule)
Fc: GCEVAGPSVFIFPPKPKDTLMISQTPEVTCVVVDVSKEHAEVQFSWYVDGVEVHEAETRPKEEQFNSTYRVVSVLPIQHQDWLKGKEFKCKVNNVDLPAPITRTISKAIGQSREPQVYTLPPPAEELSRSKVTVTCLVIGFYPPDIHVEWKSNGQPEPEGNYRTTPPQQDVDGTFFLYSKLAVDKARWDHGETFECAVMHEALHNHYTQKSISKTQGK
For the molecule B1, in test [1], the Fold increase over wild-type KD was determined as 3.3 fold and the Kd turned out to be 96.1 nM.

B2: Porcine Q311V (antibody, part only; not given: variable domains and light chain, IgG1a, not shown: another chain or arm of the molecule)
Fc: B1 Fc with E55T, Q80V
In test [1], B2 had a Fold increase over wild-type KD of 4.1 fold and a dissociation constant (Kd) of 76.4 nM.

B3: Porcine Q309D (antibody, part only; not given: variable domains and light chain, IgG1a, not shown: another chain or arm of the molecule)
Fc: B1 Fc with E55T, Q78D
In test [1], B3 registered a Fold increase over wild-type KD of 3.4 fold and a Kd of 93.6 nM.

B4: Porcine N434Y (antibody, part only; not given: variable domains and light chain, IgG1a, not shown: another chain or arm of the molecule)
Fc: B1 Fc with E55T, N205Y
In test [1], B4 displayed a Fold increase over wild-type KD of 40 fold and a dissociation constant Kd of 7.93 nM.

B5: Porcine wild-type (antibody, part only; not given: variable domains and light chain, IgG1a, not shown: another chain or arm of the molecule)
Fc: B1 Fc with E55T
B5 yielded a Fold increase over wild-type KD in test [2] of 1 fold.

B6: Porcine M428Y (antibody, part only; not given: variable domains and light chain, IgG1a, not shown: another chain or arm of the molecule)
Fc: B1 Fc with E55T, M199Y
In test [1], B6 had a Fold increase over wild-type KD of 3.6 fold and a Kd of 86.9 nM.

B7: Porcine M252Y (antibody, part only; not given: variable domains and light chain, IgG1a, not shown: another chain or arm of the molecule)
Fc: B1 Fc with M21Y, E55T
Consider B7, for which, in test [1], the Fold increase over wild-type KD was 3.3 fold and the Kd came out at 97.2 nM.

B8: Porcine Q309V (antibody, part only; not given: variable domains, light chain, IgG1a, not shown: another chain or arm of the molecule)
Fc: B1 Fc with E55T, Q78V
Take B8: in test [1], the Fold increase over wild-type KD stood at 9.3 fold and the dissociation constant Kd came to 34.1 nM.

B9: Porcine A426Y (antibody, part only; not given: variable domains, light chain, IgG1a, not shown: another chain or arm of the molecule)
Fc: B1 Fc with E55T, A197Y
As to B9, in test [1], the Fold increase over wild-type KD came to 3 fold and the Kd came out at 105 nM.

B10: Equine Q311V (antibody, part only; not given: variable domains and light chain, IgG1, not shown: another chain or arm of the molecule)
Fc: APELLGGPSVFIFPPNPKDTLMITRTPEVTCVVVDVSQENPDVKFNWYMDGVEVRTATTRPKEEQFNSTYRVVSVLRIQHVDWLSGKEFKCKVNNQALPQPIERTITKTKGRSQEPQVYVLAPHPDELSKSKVSVTCLVKDFYPPEINIEWQSNGQPELETKYSTTQAQQDSDGSYFLYSKLSVDRNRWQQGTTFTCGVMHEALHNHYTQKNVSKNPGK
In test [3], B10 gave a Fold increase over wild-type KD of 4 fold and an equilibrium dissociation constant (Kd) of 35.7 nM.

B11: Equine N434Y (antibody, part only; not given: variable domains and light chain, IgG1, not shown: another chain or arm of the molecule)
Fc: B10 Fc with V81Q, N206Y
B11: in test [3], the Fold increase over wild-type KD amounted to 61 fold and the Kd was 2.35 nM.

B12: Equine M252Y (antibody, part only; not given: variable domains, light chain, IgG1, not shown: another chain or arm of the molecule)
Fc: B10 Fc with M22Y, V81Q
As for B12, in test [3], the Fold increase over wild-type KD is 2 fold and the Kd turned out to be 71.4 nM.

B13: Equine M428Y (antibody, part only; not given: variable domains, light chain, IgG1, not shown: another chain or arm of the molecule)
Fc: B10 Fc with V81Q, M200Y
With B13, in test [3], the Fold increase over wild-type KD came to 0.9 fold and the dissociation constant Kd amounted to 151 nM.

B14: Equine Q309D (antibody, part only; not given: variable domains and light chain, IgG1, not shown: another chain or arm of the molecule)
Fc: B10 Fc with Q79D, V81Q
In test [3], B14 returned a Fold increase over wild-type KD of 1 fold and a Kd of 144 nM.

B15: Equine Q309V (antibody, part only; not given: variable domains, light chain, IgG1, not shown: another chain or arm of the molecule)
Fc: B10 Fc with Q79V, V81Q
In test [3], B15 gave a Fold increase over wild-type KD of 7.2 fold and a Kd of 20.2 nM.

B16: Equine T286E (antibody, part only; not given: variable domains and light chain, IgG1, not shown: another chain or arm of the molecule)
Fc: B10 Fc with T56E, V81Q
For the molecule B16, in test [3], the Fold increase over wild-type KD was 3 fold and the dissociation constant Kd stood at 48 nM.

B17: Equine Y436H (antibody, part only; not given: variable domains and light chain, IgG1, not shown: another chain or arm of the molecule)
Fc: B10 Fc with V81Q, Y208H
Take B17: in test [3], the Fold increase over wild-type KD was determined as 0.9 fold and the Kd turned out to be 156 nM.

B18: Ovine wild-type (antibody, part only; not given: variable domains and light chain, IgG1, not shown: another chain or arm of the molecule)
Fc: PELPGGPSVFIFPPKPKDTLTISGTPEVTCVVVDVGQDDPEVQFSWFVDNVEVRTARTKPREEQFNSTFRVVSALPIQHQDWTGGKEFKCKVHNEALPAPIVRTISRTKGQAREPQVYVLAPPQEELSKSTLSVTCLVTGFYPDYIAVEWQKNGQPESEDKYGTTTSQLDADGSYFLYSRLRVDKNSWQEGDTYACVVMHEALHNHYTQKSISKPPGK
B18 displayed a Fold increase over wild-type KD in test [4] of 1 fold.

B19: Ovine Q309V (antibody, part only; not given: variable domains and light chain, IgG1, not shown: another chain or arm of the molecule)
Fc: B18 Fc with Q78V
In test [5], B19 returned a Fold increase over wild-type KD of 6.3 fold and a Kd of 79.3 nM.

B20: Ovine M428Y (antibody, part only; not given: variable domains and light chain, IgG1, not shown: another chain or arm of the molecule)
Fc: B18 Fc with M199Y
As to B20, in test [5], the Fold increase over wild-type KD is 3 fold and the Kd turned out to be 166 nM.

B21: Ovine N434Y (antibody, part only; not given: variable domains and light chain, IgG1, not shown: another chain or arm of the molecule)
Fc: B18 Fc with N205Y
In test [5], B21 gave a Fold increase over wild-type KD of 81 fold and a Kd of 6.09 nM.

B22: Ovine T252Y (antibody, part only; not given: variable domains and light chain, IgG1, not shown: another chain or arm of the molecule)
Fc: B18 Fc with T21Y
In test [5], B22 yielded a Fold increase over wild-type KD of 11 fold and a Kd of 43.1 nM.

B23: Ovine Q311V (antibody, part only; not given: variable domains and light chain, IgG1, not shown: another chain or arm of the molecule)
Fc: B18 Fc with Q80V
In test [5], B23 showed a Fold increase over wild-type KD of 5.4 fold and a dissociation constant Kd of 92.7 nM.

B24: Bovine wild-type (antibody, part only; not given: variable domains, light chain, IgG1, not shown: another chain or arm of the molecule)
Fc: PPELPGGPSVFIFPPKPKDTLTISGTPEVTCVVVDVGHDDPEVKFSWFVDNVEVNTATTKPREEQFNSTYRVVSALRIQHQDWTGGKEFKCKVHNEGLPAPIVRTISRTKGPAREPQVYVLAPPQEELSKSTVSLTCMVTSFYPDYIAVEWQRNGQPESEDKYGTTPPQLDADSSYFLYSKLRVDRNSWQEGDTYTCVVMHEALHNHYTQKSTSKSA
As to B24, in test [6], the Fold increase over wild-type KD came to 1 fold and the Kd was found to be 505 nM.

B25: Bovine Y436H (antibody, part only; not given: variable domains and light chain, IgG1, not shown: another chain or arm of the molecule)
Fc: B24 Fc with Y208H
In test [6], B25 returned a Fold increase over wild-type KD of 2.3 fold and a Kd of 224 nM.

B26: Bovine Q311V (antibody, part only; not given: variable domains and light chain, IgG1, not shown: another chain or arm of the molecule)
Fc: B24 Fc with Q81V
With B26, the Fold increase over wild-type KD in test [6] came to 2.8 fold.

B27: Bovine Q309V (antibody, part only; not given: variable domains, light chain, IgG1, not shown: another chain or arm of the molecule)
Fc: B24 Fc with Q79V
In test [6], B27 showed a Fold increase over wild-type KD of 3.9 fold and a Kd of 129 nM.

B28: Bovine N434Y (antibody, part only; not given: variable domains and light chain, IgG1, not shown: another chain or arm of the molecule)
Fc: B24 Fc with N206Y
In test [6], B28 yielded a Fold increase over wild-type KD of 42 fold and a dissociation constant Kd of 11.9 nM.

B29: Bovine T252Y (antibody, part only; not given: variable domains and light chain, IgG1, not shown: another chain or arm of the molecule)
Fc: B24 Fc with T22Y
On to B29, for which, in test [6], the Fold increase over wild-type KD worked out at 7.1 fold and the Kd came to 71.4 nM.
